Changes are numbered by the printed parent chain.
Target: T1, TNF (UniProt P01375 77-233)
T1 construct: also called TNF-α; Tumor Necrosis Factor-α
Experiment: ELISA on solid-phase TNF (screen of the affinity maturation libraries)

T1 sequence (P01375 77-233 limits assumed): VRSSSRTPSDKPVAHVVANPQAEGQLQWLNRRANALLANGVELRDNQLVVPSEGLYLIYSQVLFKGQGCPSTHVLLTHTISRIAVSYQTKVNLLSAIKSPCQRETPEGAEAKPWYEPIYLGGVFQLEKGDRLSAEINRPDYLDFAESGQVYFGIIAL

B1: Compound 100 (other)
VL: DIQMTQSPSSLSASVGDRVTITCRASQSIDSYLHWYQQKPGKAPKLLIYSASNLETGVPSRFSGSGSGTDFTLTISSLLPEDFATYYCQQVVWRPFTFGQGTKVEIKR
notes: Domain antibody (dAb); also called anti-TNF dAb Compound 100
B1: binds.

B2: Compound 123 (other)
VL: B1 VL with S28A, L79Q
notes: Domain antibody (dAb)
B2: binds.

From patent publication US20090286962A1 (published 2009)
